Measurements from paper PMC4909244, “Crystal structure of glutamate-1-semialdehyde-2,1-aminomutase from Arabidopsis thaliana” (Acta Crystallographica. Section F, Structural Biology …, 2016).

Target: the molecule itself
Test: SEC; size-exclusion chromatography, in solution; data not shown

B1: Glutamate-1-semialdehyde-2,1-aminomutase from Arabidopsis thaliana (AtGSA1) (enzyme)
chain: not shown
notes: The sense primer puts a TEV site (ENLYFQG) directly before VDEKKKS, so a Gly may remain at the N-terminus after cleavage (surmised from the primer); The protein retains the cofactors PMP/PLP; The first six N-terminal residues are not modelled in the structure; also called GSAM; glutamate-1-semialdehyde aminotransferase; source: E. coli BL21(DE3), purified (nickel-nitrilotriacetic acid column, TEV …)
In the case of B1, the “stoichiometry N” value is reported as 2.
